Measured values reported in US20230105029A1.
Where “and” joins values, the source holds several entries; their conditions need not be identical. Identical values can stand only once. Like-named read-outs stand apart in the source and are kept apart here.

Legend:
[1] = biological target: recombinant human IL4Rα-his protein (in house made) (human) (UniProt P24394); assay: capture ELISA: antibody captured on anti-IgG Fc plate, biotin human IL4Rα-his detected
[2] = biological target: human IL4Rα expressed on 293F-IL4Rα cells (human) (UniProt P24394); assay: flow cytometry on 293F-IL4Rα cells
[3] = biological target: human IL4Rα expressed on 293F-IL4Rα cells (human) (UniProt P24394); assay: flow cytometry on 293F-IL4Rα cells, blocked ligand biotin human IL4
[4] = biological target: recombinant human IL4Rα-his protein (in house made) (human) (UniProt P24394); assay: SPR (Biacore), antibody captured, IL4Rα-his flowed
[5] = biological target: human IL4Rα expressed on 293F-IL4Rα cells (human) (UniProt P24394); assay: flow cytometry on 293F-IL4Rα cells; remark: listed apart in the source
[6] = biological target: recombinant human IL4Rα-his protein (in house made) (human) (UniProt P24394); assay: competitive ELISA: antibody mixed with biotin human IL4Rα-his, competitor plate-coated Benchmark
[7] = biological target: human IL4Rα expressed on 293F-IL4Rα cells (human) (UniProt P24394); assay: flow cytometry on 293F-IL4Rα cells, blocked ligand biotin human IL4; remark: listed apart in the source
[8] = biological target: recombinant human IL4Rα-his protein (in house made) (human) (UniProt P24394); assay: competitive ELISA: antibody mixed with biotin human IL4Rα-his, competitor plate-coated Benchmark; remark: listed apart in the source
[9] = biological target: recombinant human IL4Rα-his protein (in house made) (human) (UniProt P24394); assay: SPR (Biacore), antibody captured, IL4Rα-his flowed; remark: listed apart in the source
[10] = biological target: recombinant human IL4Rα-his protein (in house made) (human) (UniProt P24394); assay: capture ELISA: antibody captured on anti-IgG Fc plate, biotin human IL4Rα-his detected; remark: listed apart in the source
[11] = biological target: human IL4Rα expressed on 293F-IL4Rα cells (human) (UniProt P24394); assay: flow cytometry on 293F-IL4Rα cells; remark: listed apart in the source
[12] = biological target: recombinant human IL4Rα-his protein (in house made) (human) (UniProt P24394); assay: competitive ELISA, blocks biotin-IL4 binding to coated IL4Rα-his
[13] = biological target: marmoset monkey IL4Rα-his protein (marmoset monkey); assay: indirect ELISA, coated cal-IL4Rα-his
[14] = biological target: recombinant human IL4Rα-his protein (in house made) (human) (UniProt P24394); assay: SPR (Biacore), antibody captured, IL4Rα-his flowed; remark: listed apart in the source
[15] = biological target: recombinant human IL4Rα-his protein (in house made) (human) (UniProt P24394); assay: capture ELISA, biotin-IL4Rα-his
[16] = biological target: cynomolgus monkey IL4Rα-his protein (cynomolgus monkey); assay: indirect ELISA on coated cynomolgus IL4Rα-his
[17] = biological target: recombinant human IL4Rα-his protein (in house made) (human) (UniProt P24394); assay: competitive ELISA: coated human IL4Rα-his, blocked ligand biotin human IL4
[18] = biological target: recombinant human IL4Rα-his protein (in house made) (human) (UniProt P24394); assay: competitive ELISA, blocks biotin-IL4 binding to coated IL4Rα-his; remark: listed apart in the source
[19] = biological target: recombinant human IL4Rα-his protein (in house made) (human) (UniProt P24394); assay: capture ELISA: antibody captured on anti-IgG Fc plate, biotin human IL4Rα-his detected; remark: listed apart in the source
[20] = biological target: human IL4Rα expressed on 293F-IL4Rα cells (human) (UniProt P24394); assay: flow cytometry on 293F-IL4Rα cells, blocked ligand biotin human IL4; remark: listed apart in the source
[21] = biological target: recombinant human IL4Rα-his protein (in house made) (human) (UniProt P24394); assay: SPR (Biacore), antibody captured, IL4Rα-his flowed; remark: listed apart in the source
[22] = biological target: recombinant human IL4Rα-his protein (in house made) (human) (UniProt P24394); assay: capture ELISA: antibody captured on anti-IgG Fc plate, biotin human IL4Rα-his detected; remark: listed apart in the source
[23] = biological target: cynomolgus monkey IL4Rα-his protein (cynomolgus monkey); assay: indirect ELISA on coated cynomolgus IL4Rα-his; remark: listed apart in the source
[24] = biological target: recombinant human IL4Rα-his protein (in house made) (human) (UniProt P24394); assay: capture ELISA: antibody captured on anti-IgG Fc plate, biotin human IL4Rα-his detected; remark: listed apart in the source
[25] = biological target: marmoset monkey IL4Rα-his protein (marmoset monkey); assay: indirect ELISA on coated cal-IL4Rα-his
[26] = biological target: recombinant human IL4Rα-his protein (in house made) (human) (UniProt P24394); assay: competitive ELISA: coated human IL4Rα-his, blocked ligand biotin human IL4; remark: listed apart in the source
[27] = biological target: human IL4Rα expressed on 293F-IL4Rα cells (human) (UniProt P24394); assay: flow cytometry, 293F-IL4Rα cells
[28] = biological target: recombinant human IL4Rα-his protein (in house made) (human) (UniProt P24394); assay: competitive ELISA: coated human IL4Rα-his, blocked ligand biotin human IL4; remark: listed apart in the source
[29] = biological target: human IL4Rα expressed on 293F-IL4Rα cells (human) (UniProt P24394); assay: flow cytometry on 293F-IL4Rα cells; remark: listed apart in the source
[30] = biological target: human IL4Rα expressed on 293F-IL4Rα cells (human) (UniProt P24394); assay: flow cytometry on 293F-IL4Rα cells; remark: listed apart in the source
[31] = biological target: human IL4Rα expressed on HEK293T-IL4Rα-STAT6-STAT6LUC-LB2 cells (human) (UniProt P24394); assay: cell-based or functional assay
[32] = biological target: recombinant human IL4Rα-his protein (in house made) (human) (UniProt P24394); assay: capture ELISA: antibody captured on anti-IgG Fc plate, biotin human IL4Rα-his detected; remark: listed apart in the source
[33] = biological target: marmoset monkey IL4Rα-his protein (marmoset monkey); assay: indirect ELISA on coated cal-IL4Rα-his; remark: listed apart in the source
[34] = biological target: human IL4Rα expressed on 293F-IL4Rα cells (human) (UniProt P24394); assay: flow cytometry, 293F-IL4Rα cells; remark: listed apart in the source
[35] = biological target: human IL4Rα expressed on 293F-IL4Rα cells (human) (UniProt P24394); assay: flow cytometry on 293F-IL4Rα cells; remark: listed apart in the source
[36] = biological target: recombinant human IL4Rα-his protein (in house made) (human) (UniProt P24394); assay: competitive ELISA: coated human IL4Rα-his, blocked ligand biotin human IL4; remark: listed apart in the source
[37] = biological target: cynomolgus monkey IL4Rα-his protein (cynomolgus monkey); assay: indirect ELISA, coated cyno IL4Rα-his
[38] = biological target: recombinant human IL4Rα-his protein (in house made) (human) (UniProt P24394); assay: competitive ELISA: coated human IL4Rα-his, blocked ligand biotin human IL4; remark: listed apart in the source
[39] = biological target: recombinant human IL4Rα-his protein (in house made) (human) (UniProt P24394); assay: competitive ELISA, blocks biotin-IL4Rα-his binding to coated Benchmark (self-competition)
[40] = biological target: recombinant human IL4Rα-his protein (in house made) (human) (UniProt P24394); assay: competitive ELISA: antibody mixed with biotin human IL4Rα-his, competitor plate-coated Benchmark; remark: listed apart in the source
[41] = biological target: human IL4Rα expressed on 293F-IL4Rα cells (human) (UniProt P24394); assay: flow cytometry, 293F-IL4Rα cells; remark: listed apart in the source
[42] = biological target: recombinant human IL4Rα-his protein (in house made) (human) (UniProt P24394); assay: competitive ELISA, blocks biotin-IL4 binding to coated IL4Rα-his; remark: listed apart in the source
[43] = biological target: human IL4Rα expressed on 293F-IL4Rα cells (human) (UniProt P24394); assay: flow cytometry, blocks biotin-IL4 binding to 293F-IL4Rα cells
[44] = biological target: recombinant human IL4Rα-his protein (in house made) (human) (UniProt P24394); assay: SPR (Biacore), antibody captured, IL4Rα-his flowed; remark: listed apart in the source
[45] = biological target: cynomolgus monkey IL4Rα-his protein (cynomolgus monkey); assay: indirect ELISA on coated cynomolgus IL4Rα-his; remark: listed apart in the source
[46] = biological target: human IL4Rα expressed on HEK293T-IL4Rα-STAT6-STAT6LUC-LB2 cells (human) (UniProt P24394); assay: cell-based or functional assay; remark: listed apart in the source
[47] = biological target: human IL4Rα expressed on 293F-IL4Rα cells (human) (UniProt P24394); assay: flow cytometry, blocks biotin-IL4 binding to 293F-IL4Rα cells; remark: listed apart in the source
[48] = biological target: human IL4Rα expressed on 293F-IL4Rα cells (human) (UniProt P24394); assay: flow cytometry on 293F-IL4Rα cells, blocked ligand biotin human IL4; remark: listed apart in the source
[49] = biological target: human IL4Rα expressed on 293F-IL4Rα cells (human) (UniProt P24394); assay: flow cytometry on 293F-IL4Rα cells; remark: listed apart in the source
[50] = biological target: recombinant human IL4Rα-his protein (in house made) (human) (UniProt P24394); assay: competitive ELISA: antibody mixed with biotin human IL4Rα-his, competitor plate-coated Benchmark; remark: listed apart in the source
[51] = biological target: human IL4Rα expressed on 293F-IL4Rα cells (human) (UniProt P24394); assay: flow cytometry on 293F-IL4Rα cells, blocked ligand biotin human IL4; remark: listed apart in the source
[52] = biological target: human IL4Rα expressed on HEK293T-IL4Rα-STAT6-STAT6LUC-LB2 cells (human) (UniProt P24394); assay: cell-based or functional assay; remark: listed apart in the source
[53] = biological target: recombinant human IL4Rα-his protein (in house made) (human) (UniProt P24394); assay: competitive ELISA, blocks biotin-IL4Rα-his binding to coated Benchmark (self-competition); remark: listed apart in the source
[54] = biological target: cynomolgus monkey IL4Rα-his protein (cynomolgus monkey); assay: indirect ELISA, coated cyno IL4Rα-his; remark: listed apart in the source

Sequence of cynomolgus monkey IL4Rα-his protein (cynomolgus monkey) (chain, as listed by the source): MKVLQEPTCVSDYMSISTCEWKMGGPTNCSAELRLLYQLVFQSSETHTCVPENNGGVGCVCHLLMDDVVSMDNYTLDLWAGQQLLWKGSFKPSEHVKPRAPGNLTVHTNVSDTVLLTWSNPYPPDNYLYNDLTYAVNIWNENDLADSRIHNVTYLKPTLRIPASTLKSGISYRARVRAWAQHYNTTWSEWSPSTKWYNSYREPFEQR
Sequence of marmoset monkey IL4Rα-his protein (marmoset monkey) (chain, as listed by the source limits assumed): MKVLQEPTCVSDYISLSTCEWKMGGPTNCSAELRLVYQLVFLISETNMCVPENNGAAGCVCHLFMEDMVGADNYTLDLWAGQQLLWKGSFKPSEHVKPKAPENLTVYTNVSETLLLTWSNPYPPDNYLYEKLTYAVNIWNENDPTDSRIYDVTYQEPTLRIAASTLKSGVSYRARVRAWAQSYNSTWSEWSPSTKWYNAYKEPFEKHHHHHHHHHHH

B1: anti-IL4Rα benchmark (Dupilumab) (antibody, INN chains, looked up, V domains shown)
VH: EVQLVESGGGLEQPGGSLRLSCAGSGFTFRDYAMTWVRQAPGKGLEWVSSISGSGGNTYYADSVKGRFTISRDNSKNTLYLQMNSLRAEDTAVYYCAKDRLSITIRPRYYGLDVWGQGTTVTVSS
VL: DIVMTQSPLSLPVTPGEPASISCRSSQSLLYSIGYNYLDWYLQKSGQSPQLLIYLGSNRASGVPDRFSGSGSGTDFTLKISRVEAEDVGFYYCMQALQTPYTFGQGTKLEIKR
With B1 the EC50 [1] was 0.0284 nM, the EC50 [2] was 0.0816 nM and the IC50 [3] was 0.302 nM. It also gave a Kd [4] of 0.466 nM, an EC50 [5] of 0.254 nM and an IC50 [6] of 0.0158 nM. The IC50 [7] was 0.313 nM, the IC50 [8] was 0.0235 nM and the Kd [9] was 0.746 nM. For the same binder, the EC50 [10] was 0.0228 nM, the EC50 [11] was 0.397 nM and the IC50 [12] was 1.74 nM and 1.56 nM. For the same binder, the EC50 [13] was 1.72 nM and 1.84 nM, the Dissociation % [14] was -2.64% and the End (RU) [14] was 70 RU. The Kd [14] was 0.188 nM, the Start (RU) [14] was 71.9 RU and the koff [14] was 6.25e-05 s⁻¹. It also gave a kon [14] of 333000 M⁻¹ s⁻¹, an EC50 [15] of 0.05 nM and an EC50 [16] of 3.33 nM. For the same binder, the IC50 [17] was 2.06 nM, the IC50 [18] was 0.68 nM and the EC50 [19] was 0.0485 nM. The IC50 [20] was 0.505 nM, the Kd [21] was 0.17 nM and the koff [21] was 3.77e-05 s⁻¹. The kon [21] was 222000 M⁻¹ s⁻¹, the EC50 [22] was 0.0479 nM and the EC50 [23] was 0.674 nM. The EC50 [24] was 0.0505 nM, the EC50 [25] was 1.72 nM and the IC50 [26] was 1.56 nM. It also gave an EC50 [27] of 0.46 nM, an IC50 [28] of 0.682 nM and an EC50 [29] of 0.526 nM. For the same binder, the EC50 [30] was 0.134 nM, the Inhibition on IL4 induced STAT6 phosphorylation (IC50, nM) [31] was 0.7 nM and the Inhibition on IL13 induced STAT6 phosphorylation (IC50, nM) [31] was 0.84 nM. The EC50 [32] was 0.0517 nM, the EC50 [33] was 1.84 nM and the EC50 [34] was 0.08 nM. For the same binder, the EC50 [35] was 0.128 nM, the IC50 [36] was 0.269 nM and the EC50 [37] was 0.95 nM. The IC50 [38] was 1.74 nM, the IC50 [39] was 0.19 nM and 0.13 nM and the IC50 [40] was 0.189 nM. The EC50 [41] was 0.4 nM and 0.53 nM, the IC50 [42] was 2.06 nM and the IC50 [43] was 0.22 nM. It also gave a Kd [44] of 0.444 nM, a koff [44] of 0.00033 s⁻¹ and a kon [44] of 742000 M⁻¹ s⁻¹. It also gave an EC50 [45] of 0.954 nM, an Inhibition on IL4 induced STAT6 phosphorylation (IC50, nM) [46] of 0.37 nM and an Inhibition on IL13 induced STAT6 phosphorylation (IC50, nM) [46] of 0.48 nM. The IC50 [47] was 0.42 nM and 0.51 nM, the IC50 [48] was 0.421 nM and the EC50 [49] was 0.462 nM. It also gave an IC50 [50] of 0.132 nM, an IC50 [51] of 0.22 nM and an Inhibition on IL4 induced STAT6 phosphorylation (IC50, nM) [52] of 0.28 nM. The Inhibition on IL13 induced STAT6 phosphorylation (IC50, nM) [52] was 0.53 nM, the IC50 [53] was 0.02 nM and the EC50 [54] was 0.67 nM and 3.34 nM.
